From PMC9945959

Target: Full-length human NF1 isoform 2 (short isoform), recombinant (human) (UniProt P21359)
Assay: cryo-EM structure

Substance: Full-length human NF1 isoform 2 (short isoform), recombinant, P21359-2 1-2818
- stoichiometry N: 2
